Source: US20040001835A1, “Prevention or treatment of cancer using integrin alphavbeta3 antagonists in combination with other agents” (MedImmune, Inc., priority 2002, published 2004)

Experiments:
[1] = target: T1, αvβ3 expressed on placenta (placental trophoblasts) (Mus musculus, UniProt O54890); assay: Immunohistochemical staining of placental trophoblasts; type: binding; conditions: frozen thin sections, antibody 10 μg/ml
T1 construct: from tissue; host or cells: placenta (frozen sections)
T1 sequence (O54890 26-787): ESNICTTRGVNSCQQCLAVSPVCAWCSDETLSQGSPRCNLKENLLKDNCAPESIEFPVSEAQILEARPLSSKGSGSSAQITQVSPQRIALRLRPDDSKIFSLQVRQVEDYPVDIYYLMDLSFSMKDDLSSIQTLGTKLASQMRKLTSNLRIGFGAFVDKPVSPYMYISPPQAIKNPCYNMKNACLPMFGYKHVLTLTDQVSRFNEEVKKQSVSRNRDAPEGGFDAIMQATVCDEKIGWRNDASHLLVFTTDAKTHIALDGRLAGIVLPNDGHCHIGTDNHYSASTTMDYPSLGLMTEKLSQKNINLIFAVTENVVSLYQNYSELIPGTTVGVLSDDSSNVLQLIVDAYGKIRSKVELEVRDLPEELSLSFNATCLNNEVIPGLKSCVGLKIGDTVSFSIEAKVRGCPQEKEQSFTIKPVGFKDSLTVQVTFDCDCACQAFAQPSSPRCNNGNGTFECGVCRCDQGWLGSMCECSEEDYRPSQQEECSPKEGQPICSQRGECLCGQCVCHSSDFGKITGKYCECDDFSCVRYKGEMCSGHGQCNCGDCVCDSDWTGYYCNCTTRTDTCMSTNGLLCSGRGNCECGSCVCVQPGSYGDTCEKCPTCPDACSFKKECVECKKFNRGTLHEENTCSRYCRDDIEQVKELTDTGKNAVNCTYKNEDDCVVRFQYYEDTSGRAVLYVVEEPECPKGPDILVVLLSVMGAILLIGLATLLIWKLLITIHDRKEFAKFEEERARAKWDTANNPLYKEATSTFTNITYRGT
T1 sequence (P43406 31-885 partner limits assumed): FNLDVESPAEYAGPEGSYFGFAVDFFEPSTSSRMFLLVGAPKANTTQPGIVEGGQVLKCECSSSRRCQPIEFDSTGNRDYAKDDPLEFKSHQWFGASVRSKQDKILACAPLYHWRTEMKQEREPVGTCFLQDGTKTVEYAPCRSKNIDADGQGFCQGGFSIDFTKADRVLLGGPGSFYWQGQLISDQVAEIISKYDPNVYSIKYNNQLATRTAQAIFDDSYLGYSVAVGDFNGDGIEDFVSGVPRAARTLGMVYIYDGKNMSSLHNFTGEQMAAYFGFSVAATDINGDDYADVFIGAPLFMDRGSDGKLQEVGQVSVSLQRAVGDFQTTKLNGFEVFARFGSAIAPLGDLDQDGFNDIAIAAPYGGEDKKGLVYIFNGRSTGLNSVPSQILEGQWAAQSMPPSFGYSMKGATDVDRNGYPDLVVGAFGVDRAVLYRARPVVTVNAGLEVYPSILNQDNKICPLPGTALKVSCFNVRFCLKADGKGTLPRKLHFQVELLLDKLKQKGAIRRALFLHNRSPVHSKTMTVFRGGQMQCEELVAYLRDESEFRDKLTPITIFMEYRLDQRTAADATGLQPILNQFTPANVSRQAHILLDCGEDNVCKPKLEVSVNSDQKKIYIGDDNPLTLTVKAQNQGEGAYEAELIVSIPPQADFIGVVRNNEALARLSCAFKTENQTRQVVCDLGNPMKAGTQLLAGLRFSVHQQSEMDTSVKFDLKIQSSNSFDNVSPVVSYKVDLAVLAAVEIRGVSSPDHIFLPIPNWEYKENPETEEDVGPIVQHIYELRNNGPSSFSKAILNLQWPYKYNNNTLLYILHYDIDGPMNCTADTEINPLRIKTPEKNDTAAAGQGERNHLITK
T1 sequence (P43406 887-1044 partner limits assumed): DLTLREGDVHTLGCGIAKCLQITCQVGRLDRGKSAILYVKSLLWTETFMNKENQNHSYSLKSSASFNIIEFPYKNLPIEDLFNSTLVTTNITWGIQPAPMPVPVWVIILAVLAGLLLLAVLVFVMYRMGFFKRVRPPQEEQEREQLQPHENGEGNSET
Method: Table 3. Immunohistochemical staining of placental trophoblasts. Placental tissue, a rich source of αvβ3, was collected either immediately after parturition or from freshly-sacrificed, late-term pregnant animals. Tissue fragments, approximately 1 cm^3, were frozen in OCT, and thin sections were stained with monoclonal antibodies (10 μg/ml) at Sierra Biomedical (Sparks, Nev.). Vitaxin® recognized αvβ3 expressed on human, monkey, guinea pig, hamster and rabbit placenta, while […] with human and monkey αvβ3. […] ND, not done.

[2] = target: T2, modified mouse Integrin αVβ3 with amino acids 164-202 of the human β chain (Mus musculus, UniProt O54890, A208T/I198L/K199E/N204D/N207T/Q196E/S226T); assay: Binding to modified mouse Integrin αVβ3; set-up: species or system mouse/human chimera
T2 sequence (O54890 26-787 Q196E/I198L/K199E/N204D/N207T/A208T/S226T): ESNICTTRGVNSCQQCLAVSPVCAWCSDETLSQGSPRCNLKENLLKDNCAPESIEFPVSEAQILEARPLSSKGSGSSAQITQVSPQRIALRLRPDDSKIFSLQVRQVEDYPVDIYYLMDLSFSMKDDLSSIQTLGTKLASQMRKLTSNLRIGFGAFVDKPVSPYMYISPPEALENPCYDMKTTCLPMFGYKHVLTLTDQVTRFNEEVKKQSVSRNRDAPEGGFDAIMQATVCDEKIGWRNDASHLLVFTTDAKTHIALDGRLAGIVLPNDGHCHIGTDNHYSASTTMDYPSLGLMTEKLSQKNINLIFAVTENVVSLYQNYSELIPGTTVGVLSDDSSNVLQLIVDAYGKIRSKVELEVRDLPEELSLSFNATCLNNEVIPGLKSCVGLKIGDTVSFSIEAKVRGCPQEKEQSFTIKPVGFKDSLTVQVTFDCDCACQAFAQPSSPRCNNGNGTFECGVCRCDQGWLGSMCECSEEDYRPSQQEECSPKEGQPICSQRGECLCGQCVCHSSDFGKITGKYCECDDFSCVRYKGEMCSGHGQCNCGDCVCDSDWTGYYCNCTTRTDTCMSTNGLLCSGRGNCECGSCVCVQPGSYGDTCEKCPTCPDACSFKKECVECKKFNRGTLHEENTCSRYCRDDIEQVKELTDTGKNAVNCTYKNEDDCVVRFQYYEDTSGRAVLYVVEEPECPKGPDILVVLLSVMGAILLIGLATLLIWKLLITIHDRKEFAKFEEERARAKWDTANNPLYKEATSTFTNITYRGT
T2 sequence (P43406 31-885 partner): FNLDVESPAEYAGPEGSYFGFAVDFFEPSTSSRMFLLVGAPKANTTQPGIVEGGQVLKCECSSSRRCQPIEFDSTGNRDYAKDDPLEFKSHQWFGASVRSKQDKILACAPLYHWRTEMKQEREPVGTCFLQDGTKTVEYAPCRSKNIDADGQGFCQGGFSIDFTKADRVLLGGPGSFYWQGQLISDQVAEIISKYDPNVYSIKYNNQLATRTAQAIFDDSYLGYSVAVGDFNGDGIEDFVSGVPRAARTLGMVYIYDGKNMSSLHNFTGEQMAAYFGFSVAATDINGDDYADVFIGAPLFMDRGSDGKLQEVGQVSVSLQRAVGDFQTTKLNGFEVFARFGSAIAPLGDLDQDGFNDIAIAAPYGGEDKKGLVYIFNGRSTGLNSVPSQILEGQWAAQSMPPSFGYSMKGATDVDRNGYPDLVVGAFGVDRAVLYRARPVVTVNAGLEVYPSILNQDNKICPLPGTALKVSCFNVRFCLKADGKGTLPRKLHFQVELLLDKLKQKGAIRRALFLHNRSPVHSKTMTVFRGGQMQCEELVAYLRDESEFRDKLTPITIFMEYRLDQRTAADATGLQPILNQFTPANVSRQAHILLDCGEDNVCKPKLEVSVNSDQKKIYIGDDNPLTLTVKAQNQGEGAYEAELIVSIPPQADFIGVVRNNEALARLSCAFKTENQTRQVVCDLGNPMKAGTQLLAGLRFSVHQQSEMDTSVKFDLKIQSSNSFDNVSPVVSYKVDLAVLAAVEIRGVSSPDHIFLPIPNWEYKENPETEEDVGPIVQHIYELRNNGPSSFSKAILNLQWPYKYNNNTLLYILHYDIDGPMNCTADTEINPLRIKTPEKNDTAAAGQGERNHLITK
T2 sequence (P43406 887-1044 partner): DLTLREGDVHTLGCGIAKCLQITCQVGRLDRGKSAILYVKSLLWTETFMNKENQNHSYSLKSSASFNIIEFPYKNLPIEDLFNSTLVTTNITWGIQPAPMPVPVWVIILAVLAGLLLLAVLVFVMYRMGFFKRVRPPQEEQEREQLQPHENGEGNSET

Staining of Placental Trophoblasts [1]: Negative
binding to modified mouse Integrin αVβ3 (human β chain amino acids 164-202) [2]: do bind
B1: Vitaxin®: humanized blocking monoclonal antibody that binds Integrin αVβ3 (MEDI-522, MedImmune); humanized and optimized version of LM609 (antibody, chains of the INN, looked up, V domains shown)
VH: QVQLVESGGGVVQPGRSLRLSCAASGFTFSSYDMSWVRQAPGKGLEWVAKVSSGGGSTYYLDTVQGRFTISRDNSKNTLYLQMNSLRAEDTAVYYCARHLHGSFASWGQGTTVTVSS
VL: EIVLTQSPATLSLSPGERATLSCQASQSISNFLHWYQQRPGQAPRLLIRYRSQSISGIPARFSGSGSGTDFTLTISSLEPEDFAVYYCQQSGSWPLTFGGGTKVEIK
